The values below come from patent publication US20160160238.

Holding throughout (assay): cell_activity
Data set [1] concerns TALEN ssNF1ex42.2 left (synthetic (Xanthomonas TALE-FokI)?). Particulars: HDR by RFLP, pig fibroblasts, 3 days 30 C; pair with P4, 16 bp spacer.
Data set [2] deals with TALEN ssTP53 E6 right (synthetic (Xanthomonas TALE-FokI)?). The conditions noted are these: Surveyor (Cel) assay, co-transfected with ssNF1 42.3; pair with P7, 16 bp spacer.
For data set [3], the system named is TALEN ssNF1ex42.2 right (synthetic (Xanthomonas TALE-FokI)?). Particulars: HDR by RFLP, pig fibroblasts, 3 days 30 C; pair with P3, 16 bp spacer.
Data set [4] deals with TALEN ssNF1ex42.3 right (synthetic (Xanthomonas TALE-FokI)?). Particulars: HDR by RFLP, pig fibroblasts, 3 days 30 C; pair with P5, 16 bp spacer; 25.5% when co-transfected with ssTP53 E6.
For data set [5], the system named is TALEN ssNF1ex42.3 left (synthetic (Xanthomonas TALE-FokI)?). Particulars: HDR by RFLP, pig fibroblasts, 3 days 30 C; pair with P6, 16 bp spacer; 25.5% when co-transfected with ssTP53 E6.
The subject of data set [6] is TALEN ssTP53 E6 left (synthetic (Xanthomonas TALE-FokI)?). Particulars: Surveyor (Cel) assay, co-transfected with ssNF1 42.3; pair with P8, 16 bp spacer.
The test system of data set [7] is TALEN ssNF1ex42.1 right (synthetic (Xanthomonas TALE-FokI)?). Particulars: HDR by RFLP, pig fibroblasts, 3 days 30 C; pair with P1, 16 bp spacer.
For data set [8], the system named is TALEN ssNF1ex42.1 left (synthetic (Xanthomonas TALE-FokI)?). Particulars: HDR by RFLP, pig fibroblasts, 3 days 30 C; pair with P2, 16 bp spacer.

“AAGCACAATGATGATGC (double strand) [NF1 exon 42 site, 42.2 left half-site]” had an activity (% allele modification) in data set [1] of 45.1.

In data set [2], “AAGTCAGAGTACATG (double strand) [TP53 exon 6 site, right half-site]” showed an activity of 11.8 % cutting.

As for “ACTGCGATCCTTGATA (double strand) [NF1 exon 42 site, 42.2 right half-site]”, the activity (% allele modification) in data set [3] came to 45.1.

Sequence “CCTTGATAAGCTGATA (double strand) [NF1 exon 42 site, 42.3 right half-site]” gave an activity (% allele modification) in data set [4] of 27.2.

In data set [5], “GATGATGCCAAACGAC (double strand) [NF1 exon 42 site, 42.3 left half-site]” had an activity (% allele modification) of 27.2.

Turning to “GGCACCCGTGTCCGCGC (double strand) [TP53 exon 6 site, left half-site]”, in data set [6], the activity amounted to 11.8 % cutting.

In turn, “GTTACTGCGATCCTTG (double strand) [NF1 exon 42 site, 42.1 right half-site]” gave an activity (% allele modification) in data set [7] of 54.2.

As for “TGTAAGCACAATGATGA (double strand) [NF1 exon 42 site, 42.1 left half-site]”, the activity (% allele modification) in data set [8] was 54.2.
